Test results taken from article PMC12880088.

Target: T1, rYeiE (YeiE-Strep-tag II) (Salmonella enterica serotype Typhimurium ATCC14028s) (UniProt Q8ZNK8)
T1 sequence: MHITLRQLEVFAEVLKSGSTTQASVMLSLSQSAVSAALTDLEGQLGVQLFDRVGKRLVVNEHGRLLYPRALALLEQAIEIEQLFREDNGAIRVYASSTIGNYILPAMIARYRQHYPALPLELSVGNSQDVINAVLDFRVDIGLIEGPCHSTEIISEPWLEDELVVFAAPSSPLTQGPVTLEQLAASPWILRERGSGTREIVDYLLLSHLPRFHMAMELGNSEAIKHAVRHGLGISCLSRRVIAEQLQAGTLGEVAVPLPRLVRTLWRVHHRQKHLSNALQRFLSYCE
Experiment: EMSA
Settings: 150 mM KCl, 0.1 mM DTT, 0.1 mM EDTA, 10 mM Tris pH 7.4, 20 min at room temperature; 6% native PAGE, SYBR Green

In the case of “GTTGAACCGCTTTTCAGTACTTCAGCAAACACTTCAAGTTGTCGTAGCGTAATATGCATAGTCGTATCCCACCGATAGCGTTTCACTTACCACTTATAAAGATTAATTATAAATATATAATCAATTTTATTTTTAAACCAGATCACCGTAACCTTATTGTCCATATACAGGAGAAGGTTATGACAGAACTCACCTTGCAGAATCATCGTCGTACAATGTGGCATTTTATACCGGGGCTCGCTCTGAGCGCCGTCATTACAGGAGTCGCCCTGTGGGGCGGCGCTATCCCTGCCGTTGCA (double strand) [PyeiE]”, the binding is reported as “binds”.
